Seven variants from IntAct's records for PubMed 31515488 can be followed below.

Sequences and labels used below:
B1: Keratin, type II cytoskeletal 2 epidermal (Homo sapiens), P35908 (parent)
chain: MSCQISCKSRGRGGGGGGFRGFSSGSAVVSGGSRRSTSSFSCLSRHGGGGGGFGGGGFGSRSLVGLGGTKSISISVAGGGGGFGAAGGFGGRGGGFGGGSSFGGGSGFSGGGFGGGGFGGGRFGGFGGPGGVGGLGGPGGFGPGGYPGGIHEVSVNQSLLQPLNVKVDPEIQNVKAQEREQIKTLNNKFASFIDKVRFLEQQNQVLQTKWELLQQMNVGTRPINLEPIFQGYIDSLKRYLDGLTAERTSQNSELNNMQDLVEDYKKKYEDEINKRTAAENDFVTLKKDVDNAYMIKVELQSKVDLLNQEIEFLKVLYDAEISQIHQSVTDTNVILSMDNSRNLDLDSIIAEVKAQYEEIAQRSKEEAEALYHSKYEELQVTVGRHGDSLKEIKIEISELNRVIQRLQGEIAHVKKQCKNVQDAIADAEQRGEHALKDARNKLNDLEEALQQAKEDLARLLRDYQELMNVKLALDVEIATYRKLLEGEECRMSGDLSSNVTVSVTSSTISSNVASKAAFGGSGGRGSSSGGGYSSGSSSYGSGGRQSGSRGGSGGGGSISGGGYGSGGGSGGRYGSGGGSKGGSISGGGYGSGGGKHSSGGGSRGGSSSGGGYGSGGGGSSSVKGSSGEAFGSSVTFSFR
partner: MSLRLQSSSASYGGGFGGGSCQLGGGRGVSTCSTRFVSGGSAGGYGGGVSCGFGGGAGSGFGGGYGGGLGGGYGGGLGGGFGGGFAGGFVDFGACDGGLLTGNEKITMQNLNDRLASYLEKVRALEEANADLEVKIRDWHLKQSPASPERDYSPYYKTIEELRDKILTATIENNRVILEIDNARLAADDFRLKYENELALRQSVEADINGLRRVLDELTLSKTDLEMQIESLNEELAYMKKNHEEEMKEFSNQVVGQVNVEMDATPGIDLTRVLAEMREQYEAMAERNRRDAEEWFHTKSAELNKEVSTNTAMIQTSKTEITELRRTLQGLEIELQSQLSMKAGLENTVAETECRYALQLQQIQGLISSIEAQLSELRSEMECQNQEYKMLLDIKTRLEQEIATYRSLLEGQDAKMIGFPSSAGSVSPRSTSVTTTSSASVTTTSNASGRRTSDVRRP
B2: Cysteine-rich C-terminal protein 1 (Homo sapiens), Q9UGL9 (parent)
chain: MSSQQSAVSAKGFSKGSSQGPAPCPAPAPTPAPASSSSCCGSGRGCCGDSGCCGSSSTSCCCFPRRRRRQRSSGCCCCGGGSQRSQRSNNRSSGCCSGC
partner: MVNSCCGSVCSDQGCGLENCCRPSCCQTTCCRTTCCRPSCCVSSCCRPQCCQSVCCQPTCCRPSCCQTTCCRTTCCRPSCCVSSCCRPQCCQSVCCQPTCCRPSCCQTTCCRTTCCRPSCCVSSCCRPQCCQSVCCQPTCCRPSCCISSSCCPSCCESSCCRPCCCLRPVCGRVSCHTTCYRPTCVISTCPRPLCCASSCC
B3: E3 ubiquitin-protein ligase TRIM39 (Homo sapiens), Q9HCM9 (parent)
chain: MAETSLLEAGASAASTAAALENLQVEASCSVCLEYLKEPVIIECGHNFCKACITRWWEDLERDFPCPVCRKTSRYRSLRPNRQLGSMVEIAKQLQAVKRKIRDESLCPQHHEALSLFCYEDQEAVCLICAISHTHRAHTVVPLDDATQEYKEKLQKCLEPLEQKLQEITRCKSSEEKKPGELKRLVESRRQQILREFEELHRRLDEEQQVLLSRLEEEEQDILQRLRENAAHLGDKRRDLAHLAAEVEGKCLQSGFEMLKDVKSTLEKNIPRKFGGSLSTICPRDHKALLGLVKEINRCEKVKTMEVTSVSIELEKNFSNFPRQYFALRKILKQLIADVTLDPETAHPNLVLSEDRKSVKFVETRLRDLPDTPRRFTFYPCVLATEGFTSGRHYWEVEVGDKTHWAVGVCRDSVSRKGELTPLPETGYWRVRLWNGDKYAATTTPFTPLHIKVKPKRVGIFLDYEAGTLSFYNVTDRSHIYTFTDTFTEKLWPLFYPGIRAGRKNAAPLTIRPPTDWE
B4: NAD kinase (Homo sapiens), O95544 (parent)
chain: MEMEQEKMTMNKELSPDAAAYCCSACHGDETWSYNHPIRGRAKSRSLSASPALGSTKEFRRTRSLHGPCPVTTFGPKACVLQNPQTIMHIQDPASQRLTWNKSPKSVLVIKKMRDASLLQPFKELCTHLMEENMIVYVEKKVLEDPAIASDESFGAVKKKFCTFREDYDDISNQIDFIICLGGDGTLLYASSLFQGSVPPVMAFHLGSLGFLTPFSFENFQSQVTQVIEGNAAVVLRSRLKVRVVKELRGKKTAVHNGLGENGSQAAGLDMDVGKQAMQYQVLNEVVIDRGPSSYLSNVDVYLDGHLITTVQGDGVIVSTPTGSTAYAAAAGASMIHPNVPAIMITPICPHSLSFRPIVVPAGVELKIMLSPEARNTAWVSFDGRKRQEIRHGDSISITTSCYPLPSICVRDPVSDWFESLAQCLHWNVRKKQAHFEEEEEEEEEG
B5: Isoform Long of Autophagy protein 5 (Homo sapiens), Q9H1Y0-1 (parent)
chain: MTDDKDVLRDVWFGRIPTCFTLYQDEITEREAEPYYLLLPRVSYLTLVTDKVKKHFQKVMRQEDISEIWFEYEGTPLKWHYPIGLLFDLLASSSALPWNITVHFKSFPEKDLLHCPSKDAIEAHFMSCMKEADALKHKSQVINEMQKKDHKQLWMGLQNDRFDQFWAINRKLMEYPAEENGFRYIPFRIYQTTTERPFIQKLFRPVAADGQLHTLGDLLKEVCPSAIDPEDGEKKNQVMIHGIEPMLETPLQWLSEHLSYPDNFLHISIIPQPTD
B6: U3 small nucleolar RNA-associated protein 14 homolog A (Homo sapiens), Q9BVJ6 (parent)
chain: MTANRLAESLLALSQQEELADLPKDYLLSESEDEGDNDGERKHQKLLEAISSLDGKNRRKLAERSEASLKVSEFNVSSEGSGEKLVLADLLEPVKTSSSLATVKKQLSRVKSKKTVELPLNKEEIERIHREVAFNKTAQVLSKWDPVVLKNRQAEQLVFPLEKEEPAIAPIEHVLSGWKARTPLEQEIFNLLHKNKQPVTDPLLTPVEKASLRAMSLEEAKMRRAELQRARALQSYYEAKARREKKIKSKKYHKVVKKGKAKKALKEFEQLRKVNPAAALEELEKIEKARMMERMSLKHQNSGKWAKSKAIMAKYDLEARQAMQEQLSKNKELTQKLQVASESEEEEGGTEDVEELLVPDVVNEVQMNADGPNPWMLRSCTSDTKEAATQEDPEQLPELEAHGVSESEGEERPVAEEEILLREFEERRSLRKRSELSQDAEPAGSQETKDSGSQEVLSELRVLSQKLKENHQSRKQKASSEGTIPQVQREEPAPEEEEPLLLQRPERVQTLEELEELGKEECFQNKELPRPVLEGQQSERTPNNRPDAPKEKKKKEQMIDLQNLLTTQSPSVKSLAVPTIEELEDEEERNHRQMIKEAFAGDDVIRDFLKEKREAVEASKPKDVDLTLPGWGEWGGVGLKPSAKKRRRFLIKAPEGPPRKDKNLPNVIINEKRNIHAAAHQVRVLPYPFTHHWQFERTIQTPIGSTWNTQRAFQKLTTPKVVTKPGHIINPIKAEDVGYRSSSRSDLSVIQRNPKRITTRHKKQLKKCSVD

The variants in the first test derive from B1. The settings on record: with KRT13, P13646.
A517G: the “effect of a mutation on the interaction” value is given as “with no effect”.

The variants in a further test derive from B2. The conditions noted are these: with kr412_human KRTAP4-12, Q9BQ66.
Regarding G20S, the “effect of a mutation on the interaction” value is reported as “with no effect”.

The variants in the next test derive from B3. The conditions noted are these: with znf26_human ZNF26, P17031.
Chain of znf26_human ZNF26, P17031 (P17031 whole entry): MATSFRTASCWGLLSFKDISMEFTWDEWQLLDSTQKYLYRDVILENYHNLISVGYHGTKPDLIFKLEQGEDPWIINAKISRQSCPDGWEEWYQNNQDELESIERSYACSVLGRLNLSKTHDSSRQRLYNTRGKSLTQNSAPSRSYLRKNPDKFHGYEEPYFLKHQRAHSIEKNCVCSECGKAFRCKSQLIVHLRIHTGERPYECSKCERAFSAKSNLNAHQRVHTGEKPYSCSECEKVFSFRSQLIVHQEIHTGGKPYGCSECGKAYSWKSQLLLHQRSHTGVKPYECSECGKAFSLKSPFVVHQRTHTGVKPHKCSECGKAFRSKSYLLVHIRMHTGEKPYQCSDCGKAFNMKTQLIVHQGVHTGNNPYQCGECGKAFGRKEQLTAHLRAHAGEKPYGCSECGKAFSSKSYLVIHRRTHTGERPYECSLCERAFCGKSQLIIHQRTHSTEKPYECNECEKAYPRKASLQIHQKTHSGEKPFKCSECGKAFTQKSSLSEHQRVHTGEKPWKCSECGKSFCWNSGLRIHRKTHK
Take L194S: the “effect of a mutation on the interaction” value is “disrupting interaction strength”.

In a further test the parent is B3. The conditions noted are these: with ccnc_human CCNC.
Take L194S: the “effect of a mutation on the interaction” value is “disrupting interaction strength”.

The variants in another test derive from B3. The conditions noted are these: with if4a2_human EIF4A2, Q14240.
Chain of if4a2_human EIF4A2, Q14240 (Q14240 whole entry): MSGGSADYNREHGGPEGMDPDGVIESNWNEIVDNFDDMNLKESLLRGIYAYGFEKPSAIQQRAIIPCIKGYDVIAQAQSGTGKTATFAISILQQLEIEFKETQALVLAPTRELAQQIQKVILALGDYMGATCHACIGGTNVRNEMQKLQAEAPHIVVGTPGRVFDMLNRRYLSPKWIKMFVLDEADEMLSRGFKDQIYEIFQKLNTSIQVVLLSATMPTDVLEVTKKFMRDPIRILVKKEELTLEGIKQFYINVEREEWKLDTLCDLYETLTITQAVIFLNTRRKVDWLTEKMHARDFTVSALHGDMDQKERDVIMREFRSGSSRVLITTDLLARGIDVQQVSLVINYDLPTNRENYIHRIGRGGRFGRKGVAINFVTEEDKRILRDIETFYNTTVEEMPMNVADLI
Take L194S: the “effect of a mutation on the interaction” value was “disrupting interaction strength”.

The variants in another test derive from B3. The conditions noted are these: with ub2e2_human UBE2E2, Q96LR5.
Chain of ub2e2_human UBE2E2, Q96LR5 (Q96LR5 whole entry): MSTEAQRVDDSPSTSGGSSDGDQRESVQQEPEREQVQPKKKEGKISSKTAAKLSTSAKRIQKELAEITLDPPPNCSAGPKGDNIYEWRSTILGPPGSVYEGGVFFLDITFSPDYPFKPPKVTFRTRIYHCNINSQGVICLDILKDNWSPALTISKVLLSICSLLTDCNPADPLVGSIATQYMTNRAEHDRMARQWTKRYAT
For the variant L194S, the “effect of a mutation on the interaction” value is listed as “disrupting interaction strength”.

The variants in another test derive from B3. The settings on record: with ub2d3_human UBE2D3, P61077.
Chain of ub2d3_human UBE2D3, P61077 (P61077 whole entry): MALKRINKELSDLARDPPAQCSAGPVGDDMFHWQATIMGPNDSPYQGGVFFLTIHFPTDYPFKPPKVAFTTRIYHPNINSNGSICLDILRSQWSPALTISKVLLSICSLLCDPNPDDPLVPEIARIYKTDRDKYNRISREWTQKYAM
Consider L194S, for which the “effect of a mutation on the interaction” value is “disrupting interaction strength”.

Variants of B4 are the subject of another test. The conditions noted are these: with sdcb1_human SDCBP.
As to R249W, the “effect of a mutation on the interaction” value is recorded as “with no effect”.

The variants in another test derive from B5. The conditions noted are these: with tera_human VCP.
Consider K58M, for which the “effect of a mutation on the interaction” value is given as “disrupting interaction strength”.

The variants in another test derive from B5. The settings on record: with keap1_human KEAP1, Q14145.
Chain of keap1_human KEAP1, Q14145 (Q14145 whole entry): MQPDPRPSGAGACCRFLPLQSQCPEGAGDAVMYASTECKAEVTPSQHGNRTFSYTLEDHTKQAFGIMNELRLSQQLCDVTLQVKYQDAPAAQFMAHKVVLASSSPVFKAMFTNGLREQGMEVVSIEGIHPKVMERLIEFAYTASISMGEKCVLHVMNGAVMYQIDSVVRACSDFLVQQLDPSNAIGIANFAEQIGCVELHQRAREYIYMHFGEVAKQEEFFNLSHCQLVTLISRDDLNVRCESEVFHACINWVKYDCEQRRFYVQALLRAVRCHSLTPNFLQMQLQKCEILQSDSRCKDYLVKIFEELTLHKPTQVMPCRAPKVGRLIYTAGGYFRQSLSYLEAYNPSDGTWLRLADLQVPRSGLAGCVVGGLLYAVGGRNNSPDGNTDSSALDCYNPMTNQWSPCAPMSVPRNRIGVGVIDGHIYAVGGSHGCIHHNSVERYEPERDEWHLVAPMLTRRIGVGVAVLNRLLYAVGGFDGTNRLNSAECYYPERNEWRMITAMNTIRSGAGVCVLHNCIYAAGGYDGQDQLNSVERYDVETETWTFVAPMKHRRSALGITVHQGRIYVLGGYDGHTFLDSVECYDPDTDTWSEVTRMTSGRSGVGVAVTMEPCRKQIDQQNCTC
Turning to K58M, the “effect of a mutation on the interaction” value is listed as “with no effect”.

The next test covers variants of B6. The conditions noted are these: with ldoc1_human LDOC1, O95751.
Chain of ldoc1_human LDOC1, O95751 (O95751 whole entry): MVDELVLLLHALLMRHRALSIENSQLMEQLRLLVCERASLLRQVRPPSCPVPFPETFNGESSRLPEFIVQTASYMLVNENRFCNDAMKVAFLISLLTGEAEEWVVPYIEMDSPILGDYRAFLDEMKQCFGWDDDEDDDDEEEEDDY
Turning to T579A, the “effect of a mutation on the interaction” value is “with no effect”.

In the next test the parent is B6. The conditions noted are these: with cep70_human CEP70, Q8NHQ1.
Chain of cep70_human CEP70, Q8NHQ1 (Q8NHQ1 whole entry): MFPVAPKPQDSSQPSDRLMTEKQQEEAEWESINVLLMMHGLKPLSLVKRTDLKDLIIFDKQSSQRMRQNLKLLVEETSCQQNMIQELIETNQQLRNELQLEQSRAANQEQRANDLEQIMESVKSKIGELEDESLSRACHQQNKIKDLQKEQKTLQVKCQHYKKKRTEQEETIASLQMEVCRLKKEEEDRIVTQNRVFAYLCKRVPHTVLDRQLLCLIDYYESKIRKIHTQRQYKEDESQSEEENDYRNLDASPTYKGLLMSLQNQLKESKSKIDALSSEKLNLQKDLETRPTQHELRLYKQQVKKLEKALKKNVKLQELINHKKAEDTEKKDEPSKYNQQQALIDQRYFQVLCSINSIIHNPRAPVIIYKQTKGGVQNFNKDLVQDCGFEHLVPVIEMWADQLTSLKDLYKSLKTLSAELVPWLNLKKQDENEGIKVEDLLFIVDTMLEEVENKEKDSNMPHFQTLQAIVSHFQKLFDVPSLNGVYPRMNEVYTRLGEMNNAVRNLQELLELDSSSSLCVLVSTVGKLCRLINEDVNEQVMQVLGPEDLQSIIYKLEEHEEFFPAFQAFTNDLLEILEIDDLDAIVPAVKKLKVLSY
For the variant V256M, the “effect of a mutation on the interaction” value is given as “with no effect”.
